Assay results: PMC9004659

Target: Recombinant human BAX (wild type) (human) (UniProt Q07812)
Assay: SEC

Substance: Recombinant human BAX (wild type) (from UniProt Q07812-1) (natural protein)
- share of the BAX population shifted toward oligomers: > 70%
